The target in data set [1] is biotinylated human D-MCP-1 (mirror-image D-protein) (Homo sapiens) (UniProt P13500). Kind of data set: pulldown.
The target of data set [2] is biotinylated murine D-MCP-1 (mirror-image D-protein) (Mus musculus) (UniProt P10148). Kind of data set: pulldown. To be noted: subnanomolar.
The target of data set [3] is human MCP-1 (CCL2, natural L-form) (Homo sapiens) (UniProt P13500). Kind of data set: SPR. Conditions: L-RNA, 37 C, 1 mM Mg, 1 mM Ca.
The mark [4] stands for this setting: direct or competitive pull-down.

biotinylated human D-MCP-1 (mirror-image D-protein) (Homo sapiens), sequence (P13500 24-99): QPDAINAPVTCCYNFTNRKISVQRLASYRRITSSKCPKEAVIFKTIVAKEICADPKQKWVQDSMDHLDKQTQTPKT
biotinylated murine D-MCP-1 (mirror-image D-protein) (Mus musculus), sequence (P10148 24-99): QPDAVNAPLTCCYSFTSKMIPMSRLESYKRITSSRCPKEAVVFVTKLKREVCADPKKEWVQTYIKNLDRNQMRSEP
human MCP-1 (CCL2, natural L-form) (Homo sapiens), sequence (P13500 24-99): as the sequence (P13500 24-99) above

“ACGCACGUCCCUCACCGGUGCAAGUGAAGCCGUGGCUCUGC [D-180-D1-012]”: in data set [1] (setting [4]), the Kd (usually a measure of binding affinity in units of concentration) was less than 1 nM.

Sequence “ACGCACGUCCCUCACCGGUGCAAGUGAAGCCGUGGCUCUGCGU [D-180-D1-002]” showed a Kd in data set [1] (setting [4]) of less than 1 nM. In the case of “AGCGUGCCAGUGUGAUGGGGGGGCGCGACCCAUUUUACACGCU [D-176-C9trc]”, the Kd in data set [1] (Type 1B) worked out at 5 nM. “AGCGUGCCCGGUGUGGUAGGGGGGCGCGACCUACAUUUGCACGCU [D-176-E10trc]”: the equilibrium dissociation constant (Kd) in data set [1] (Type 1A) worked out at 5 nM. For the sequence “CGCACGUCCCUCACCGGUGCAAGUGAAGCCGUGGCUCUGCG [D-180-D1-035]”, the Kd in data set [1] (setting [4]) is less than 1 nM. On to “CUGGUUACCGAGGGGGCGUCGUUGGAGUUUGGUUGGUUGUCACCAG [D-189-G7-002]”, for which the Kd in data set [2] (stated for derivatives) was less than 1 nM. Turning to “GAGAUGGCGACAUUGGUUGGGCAUGAGGCGAGGCCCUUUGAUGAAUCCGCGGCCAUUC [D-188-A3-001]”, in data set [2], the Kd was less than 1 nM. “GAUGGCGACAUUGGUUGGGCAUGAGGCGAGGCCCUUUGAUGAAUCCGCGGCCAUUC [D-188-A3-004]” came in with a Kd in data set [2] (stated for derivatives) of less than 1 nM.

Take “GCACGUCCCUCACCGGUGCAAGUGAAGCCGUGGCUCUGCG [D-NOX-E36 (D-180-D1-036)]”: the dissociation constant Kd in data set [1] (37 C, selection buffer 1 mM Mg, 1 mM Ca) was 0.146 nM; in data set [1] (room temperature, selection buffer 1 mM Mg, 1 mM Ca) it was 0.89 nM.

As for “GCACGUCCCUCACCGGUGCAAGUGAAGCCGUGGCUCUGCG [NOX-E36 (180-D1-036)]”, the Kd in data set [3] (PioneerF1 chip) stood at 0.89 nM.

As for “GCACGUCCCUCACCGGUGCAAGUGAAGCCGUGGCUCUGCGU [D-180-D1-011]”, the Kd in data set [1] (setting [4]) was less than 1 nM. In data set [2] (stated for derivatives), “GCCGGCUACCGAGGGGGCGUCGUUGGAGUUUGGUUGGUUGUCGCCGGC [D-189-G7-008]” had a Kd of less than 1 nM. Still for that read-out and setting: as for “GCCGGUUACCGAGGGGGCGUCGUUGGAGUUUGGUUGGUUGUCACCGGC [D-189-G7-007]”, the figure is less than 1 nM. As for “GCGCGUACCGAGGGGGCGUCGUUGGAGUUUGGUUGGUUGUCCGCGC [D-189-G7-010]”, in data set [2] (stated for derivatives), the Kd was less than 1 nM. In data set [2], “GCUGGUUACCGAGGGGGCGUCGUUGGAGUUUGGUUGGUUGUCACCAGC [D-189-G7-001]” registered a Kd of less than 1 nM.

As to “GGCGACAUUGGUUGGGCAUGAGGCGAGGCCCUUUGAUGAAUCCGCGGCCAUU [D-188-A3-006]”, in data set [2] (stated for derivatives), the Kd is less than 1 nM.

Turning to “GGCGACAUUGGUUGGGCAUGAGGCGAGGCCCUUUGAUGAAUCCGCGGCCAUUC [D-188-A3-005]”, the Kd in data set [2] (stated for derivatives) is less than 1 nM. In data set [2] (stated for derivatives), “GGGCCUACCGAGGGGGCGUCGUUGGAGUUUGGUUGGUUGUCGGCCC [D-189-G7-012]” showed a dissociation constant Kd of less than 1 nM. For “GGGCGUAGUGAGAAACUACCAACGACUGGCUAGAGCCGGCCC [181-A2-018]”, in data set [3] (CM4 chip), the dissociation constant Kd came out at 0.37 nM. On to “GUGCGCGUAGUUAAAAACUACCAGCGACUGGCUAGAGCCGGCGCAC [D-178-D5-030]”, for which the Kd in data set [1] (setting [4]) stood at 0.5 nM. This lies in the sub-nanomolar range. Same read-out and setting: to “GUGCUGCGUAGUGAGAAACUACCAACGACUGGCUAGAGCCGGCAGCAC [D-181-A2]” belongs 0.1 nM; to “GUGCUGCGUAGUUAAAAACUACCAGCGACUGGCUAGAGCCGGCAGCAC [D-178-D5]”, 0.5 nM.

In data set [2] (stated for derivatives), “UGGUUACCGAGGGGGCGUCGUUGGAGUUUGGUUGGUUGUCACCA [D-189-G7-003]” came in with a dissociation constant Kd of less than 1 nM.
